According to paper PMC8465852, “The HMGB Protein KlIxr1, a DNA Binding Regulator of Kluyveromyces lactis Gene Expression Involved in Oxidative Metabolism, Growth, and dNTP Synthesis”:

What was measured:
[1] = target: T1, KlIxr1 (Kluyveromyces lactis, UniProt Q6CMQ4 1-464); assay: fluorescence anisotropy; 100 nM DNA; FA: 10 mM Tris-HCl pH 8.0, 100 mM KCl, 2 mM DTT, 1 mM EDTA, 500 ug/mL BSA, 25 C, 100 nM DNA; EMSA: 4 C 30 min, 500 nM DNA, 1 ug protein, 1 ug calf thymus DNA, buffer by reference; settings: protein: recombinant, tags: N-terminal 6xHis, blunt
T1 sequence: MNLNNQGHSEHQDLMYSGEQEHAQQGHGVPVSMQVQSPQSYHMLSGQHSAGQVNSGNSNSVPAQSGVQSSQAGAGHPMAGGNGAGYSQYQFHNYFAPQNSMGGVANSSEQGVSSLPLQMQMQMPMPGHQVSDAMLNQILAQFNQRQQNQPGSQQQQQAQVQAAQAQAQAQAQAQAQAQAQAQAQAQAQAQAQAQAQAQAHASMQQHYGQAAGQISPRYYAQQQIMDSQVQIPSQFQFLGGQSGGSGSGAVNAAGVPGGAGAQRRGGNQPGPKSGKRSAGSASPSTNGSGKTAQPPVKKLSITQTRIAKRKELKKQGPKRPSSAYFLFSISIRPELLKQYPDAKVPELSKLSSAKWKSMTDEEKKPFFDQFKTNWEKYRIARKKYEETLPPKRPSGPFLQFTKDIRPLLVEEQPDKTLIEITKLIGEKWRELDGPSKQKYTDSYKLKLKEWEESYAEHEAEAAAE

[2] = target: T1, KlIxr1; assay: EMSA; calf thymus DNA carrier; two retarded bands; FA: 10 mM Tris-HCl pH 8.0, 100 mM KCl, 2 mM DTT, 1 mM EDTA, 500 ug/mL BSA, 25 C, 100 nM DNA; EMSA: 4 C 30 min, 500 nM DNA, 1 ug protein, 1 ug calf thymus DNA, buffer by reference; settings: protein: recombinant; tags: N-terminal 6xHis; label: 5'-FAM on forward strand (AJVV009f*); blunt

B1: HEM13A (dsDNA)
DNA 1: ATCTTGAATGTATGTTGGTTCAGCCTCTCC
DNA 2: GGAGAGGCTGAACCAACATACATTCAAGAT
B1 gave a Kd ([1]; label: 5'-FAM on forward strand (AJVV045f*)) of 15.6 ± 4.27 nM.

B2: HEM13B (dsDNA)
DNA 1: TGGCCCAGCCTCTATTTCTCTCGTACCGGT
DNA 2: ACCGGTACGAGAGAAATAGAGGCTGGGCCA
With B2 the Kd ([1]; label: 5'-FAM on forward strand (AJVV050f*)) was 155 ± 38.6 nM.

B3: KlYCF1 promoter (dsDNA)
DNA 1: TTAATTGCAATTGTTACTGTTGATTTTAAA
DNA 2: TTTAAAATCAACAGTAACAATTGCAATTAA
B3 was tested, and the Kd ([1]; label: 5'-FAM on forward strand (AJVV029f*)) was 105 ± 18.9 nM.

B4: KlHEM13 promoter 40-mer (both sites) (dsDNA)
DNA 1: ATCTTGAATGTATGTTGGTTCAGCCTCTATTTCTCTCGTA
DNA 2: TACGAGAGAAATAGAGGCTGAACCAACATACATTCAAGAT
B4: binds [2].
